From paper PMC3326314 (Nucleic Acids Research, 2011)

Assays:
Rap1[358-827] [1] = molecular target: T1, Rap1[358-827] (Saccharomyces cerevisiae, UniProt P11938 358-827); assay: X-ray crystallography
T1 sequence: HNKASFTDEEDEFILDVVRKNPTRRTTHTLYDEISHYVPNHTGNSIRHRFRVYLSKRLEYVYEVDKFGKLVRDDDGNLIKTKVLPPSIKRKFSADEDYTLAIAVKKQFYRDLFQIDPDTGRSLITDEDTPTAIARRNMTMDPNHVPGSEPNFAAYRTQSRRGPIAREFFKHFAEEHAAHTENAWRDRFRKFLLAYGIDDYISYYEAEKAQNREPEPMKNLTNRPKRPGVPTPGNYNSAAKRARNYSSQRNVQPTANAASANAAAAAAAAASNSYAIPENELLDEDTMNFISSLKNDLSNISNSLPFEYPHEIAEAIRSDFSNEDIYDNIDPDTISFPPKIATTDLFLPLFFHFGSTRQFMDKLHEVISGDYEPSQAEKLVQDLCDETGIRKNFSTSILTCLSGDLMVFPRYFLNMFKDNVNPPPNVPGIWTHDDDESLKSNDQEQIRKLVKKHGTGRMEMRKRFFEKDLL

Rap1 WT (Rap1-fl) = molecular target: T2, Rap1 WT (Rap1-fl) (Saccharomyces cerevisiae, UniProt P11938 1-827); assay: SAXS and AUC
T2 sequence: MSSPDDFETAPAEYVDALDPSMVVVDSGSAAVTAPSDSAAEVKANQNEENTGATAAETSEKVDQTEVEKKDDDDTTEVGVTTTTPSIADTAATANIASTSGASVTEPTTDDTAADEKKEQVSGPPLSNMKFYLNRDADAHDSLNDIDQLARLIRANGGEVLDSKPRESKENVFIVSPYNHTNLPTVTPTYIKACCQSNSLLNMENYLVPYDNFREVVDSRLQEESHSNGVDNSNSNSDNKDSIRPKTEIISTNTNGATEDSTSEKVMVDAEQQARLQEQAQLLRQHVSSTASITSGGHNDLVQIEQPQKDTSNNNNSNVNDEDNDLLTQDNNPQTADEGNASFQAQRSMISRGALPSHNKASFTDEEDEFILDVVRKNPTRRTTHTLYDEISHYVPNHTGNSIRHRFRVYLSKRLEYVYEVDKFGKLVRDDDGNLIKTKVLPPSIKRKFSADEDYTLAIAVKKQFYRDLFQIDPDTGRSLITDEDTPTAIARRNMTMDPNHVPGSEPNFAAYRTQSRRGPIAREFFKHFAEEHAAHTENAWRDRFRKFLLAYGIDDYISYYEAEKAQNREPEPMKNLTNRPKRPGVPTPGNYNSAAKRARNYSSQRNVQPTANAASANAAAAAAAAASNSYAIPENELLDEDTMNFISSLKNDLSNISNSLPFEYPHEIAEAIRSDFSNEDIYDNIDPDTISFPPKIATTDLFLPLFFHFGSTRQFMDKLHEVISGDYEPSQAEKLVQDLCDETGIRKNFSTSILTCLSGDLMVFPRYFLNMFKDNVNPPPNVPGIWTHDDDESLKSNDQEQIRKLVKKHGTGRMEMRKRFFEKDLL

Rap1[358-827] [2] = molecular target: T1, Rap1[358-827]; assay: SAXS and AUC
Rap1[117-827] = molecular target: T3, Rap1[117-827] (Saccharomyces cerevisiae, UniProt P11938 117-827); assay: SAXS and AUC
T3 sequence: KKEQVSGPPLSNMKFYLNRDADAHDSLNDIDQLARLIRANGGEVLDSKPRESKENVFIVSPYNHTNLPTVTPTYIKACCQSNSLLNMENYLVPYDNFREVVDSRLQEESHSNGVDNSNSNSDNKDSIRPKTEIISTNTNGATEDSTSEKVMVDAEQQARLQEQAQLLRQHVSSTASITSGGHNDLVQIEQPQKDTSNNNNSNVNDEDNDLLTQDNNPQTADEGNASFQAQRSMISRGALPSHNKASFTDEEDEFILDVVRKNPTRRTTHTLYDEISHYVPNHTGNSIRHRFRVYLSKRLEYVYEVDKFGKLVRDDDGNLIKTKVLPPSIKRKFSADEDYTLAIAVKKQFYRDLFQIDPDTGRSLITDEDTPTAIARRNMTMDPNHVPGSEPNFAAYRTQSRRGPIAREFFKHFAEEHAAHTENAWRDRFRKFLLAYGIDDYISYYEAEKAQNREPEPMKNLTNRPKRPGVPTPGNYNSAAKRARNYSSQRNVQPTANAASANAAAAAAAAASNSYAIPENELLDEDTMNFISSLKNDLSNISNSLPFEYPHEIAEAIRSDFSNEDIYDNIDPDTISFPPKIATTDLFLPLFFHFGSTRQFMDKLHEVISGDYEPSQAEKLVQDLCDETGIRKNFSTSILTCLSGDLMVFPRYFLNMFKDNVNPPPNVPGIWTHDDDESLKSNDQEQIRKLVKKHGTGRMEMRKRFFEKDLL

Rap1[Y592A-K597A] = molecular target: T4, Rap1[Y592A-K597A] (Saccharomyces cerevisiae, UniProt P11938 1-827, Y592A;K597A); assay: EMSA
T4 sequence: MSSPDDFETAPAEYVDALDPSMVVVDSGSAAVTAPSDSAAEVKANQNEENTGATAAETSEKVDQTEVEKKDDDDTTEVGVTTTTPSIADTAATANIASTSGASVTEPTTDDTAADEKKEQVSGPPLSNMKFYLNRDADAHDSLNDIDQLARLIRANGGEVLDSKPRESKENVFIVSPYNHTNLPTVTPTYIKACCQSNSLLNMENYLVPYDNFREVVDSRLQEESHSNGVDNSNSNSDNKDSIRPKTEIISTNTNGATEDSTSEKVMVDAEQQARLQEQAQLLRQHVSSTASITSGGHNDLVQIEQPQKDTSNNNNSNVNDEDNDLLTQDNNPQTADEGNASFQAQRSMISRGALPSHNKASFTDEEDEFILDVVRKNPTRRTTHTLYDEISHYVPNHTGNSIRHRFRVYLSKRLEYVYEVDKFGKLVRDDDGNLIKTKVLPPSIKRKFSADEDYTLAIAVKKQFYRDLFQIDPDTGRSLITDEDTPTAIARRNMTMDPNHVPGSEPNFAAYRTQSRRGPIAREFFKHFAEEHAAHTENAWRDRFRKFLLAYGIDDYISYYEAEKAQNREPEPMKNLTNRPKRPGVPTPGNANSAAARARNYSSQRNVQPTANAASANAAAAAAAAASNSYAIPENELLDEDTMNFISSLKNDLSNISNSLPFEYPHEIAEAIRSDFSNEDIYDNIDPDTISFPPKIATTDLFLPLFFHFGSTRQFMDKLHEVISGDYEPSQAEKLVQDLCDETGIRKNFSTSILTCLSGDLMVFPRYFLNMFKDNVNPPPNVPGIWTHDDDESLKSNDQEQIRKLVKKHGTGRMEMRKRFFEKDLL

Rap1Δ[591-597] = molecular target: T5, Rap1Δ[591-597] (Saccharomyces cerevisiae, UniProt P11938 1-827, del591-597); assay: EMSA
T5 sequence: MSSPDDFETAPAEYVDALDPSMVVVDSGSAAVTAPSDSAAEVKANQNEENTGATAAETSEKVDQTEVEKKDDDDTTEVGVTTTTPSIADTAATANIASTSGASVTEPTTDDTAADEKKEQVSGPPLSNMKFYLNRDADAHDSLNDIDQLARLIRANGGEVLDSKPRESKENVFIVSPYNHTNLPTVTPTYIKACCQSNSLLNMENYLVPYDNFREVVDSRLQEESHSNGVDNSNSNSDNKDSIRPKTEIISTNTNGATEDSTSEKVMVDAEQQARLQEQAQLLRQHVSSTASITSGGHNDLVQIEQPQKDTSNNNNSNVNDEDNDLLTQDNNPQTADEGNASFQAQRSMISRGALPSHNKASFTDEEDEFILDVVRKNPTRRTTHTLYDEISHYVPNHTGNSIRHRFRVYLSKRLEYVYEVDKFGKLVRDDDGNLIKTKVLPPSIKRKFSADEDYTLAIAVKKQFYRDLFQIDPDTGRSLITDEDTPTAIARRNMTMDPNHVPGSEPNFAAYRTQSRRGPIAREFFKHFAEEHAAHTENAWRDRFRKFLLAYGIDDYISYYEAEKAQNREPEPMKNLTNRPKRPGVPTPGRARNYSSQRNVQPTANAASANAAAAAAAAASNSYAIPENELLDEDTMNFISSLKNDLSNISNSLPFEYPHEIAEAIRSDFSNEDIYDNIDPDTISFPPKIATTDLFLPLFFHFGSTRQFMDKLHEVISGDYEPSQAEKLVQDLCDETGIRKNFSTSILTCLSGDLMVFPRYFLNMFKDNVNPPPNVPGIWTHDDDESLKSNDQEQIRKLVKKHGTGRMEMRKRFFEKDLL

Rif2 full length = molecular target: T6, Rif2 full length (UniProt Q06208 1-395); assay: NMR titration
T6 sequence (looked up): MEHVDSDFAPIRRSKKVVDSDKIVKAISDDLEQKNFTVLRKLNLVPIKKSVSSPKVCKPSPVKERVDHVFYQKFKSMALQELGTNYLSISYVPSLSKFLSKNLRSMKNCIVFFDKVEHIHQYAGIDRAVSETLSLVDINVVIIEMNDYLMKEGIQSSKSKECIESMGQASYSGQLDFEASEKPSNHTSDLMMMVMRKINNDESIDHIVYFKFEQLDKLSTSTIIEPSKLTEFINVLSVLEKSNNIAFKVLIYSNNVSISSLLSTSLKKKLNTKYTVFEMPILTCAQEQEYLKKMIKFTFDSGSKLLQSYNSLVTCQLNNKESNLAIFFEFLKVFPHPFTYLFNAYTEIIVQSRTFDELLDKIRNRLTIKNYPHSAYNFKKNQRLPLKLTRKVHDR

B1: 31-mer crystallography duplex (dsDNA)
DNA 1: ACCTGGTGTGTGGGTGTTGTGTGGTGTTCAC
DNA 2: GTGTGAACACCACACAACACCCACACACCAG
Question: Does B1 bind (Rap1[358-827] [1])?
Answer: Result: binds

B2: 20-mer DNA duplex (AUC and SAXS) (dsDNA)
DNA 1: TCCTGGTGTGTGGGTGTGCG
DNA 2: GACGCACACCCACACACCAG
Question: Does B2 bind (Rap1 WT (Rap1-fl))?
Answer: Result: binds

Question: Does B2 bind (Rap1[358-827] [2])?
Answer: Result: binds

Question: Does B2 bind (Rap1[117-827])?
Answer: Result: binds

B3: 21-mer telomeric DNA duplex (ITC and EMSA) (dsDNA)
DNA 1: TCCTGGTGTGTGGGTGTGCGG
DNA 2: GCACACCCACACACCAGGACC
Question: Does B3 bind (Rap1[Y592A-K597A])?
Answer: Result: binds

Question: Does B3 bind (Rap1Δ[591-597])?
Answer: Result: binds

B4: Rap1[675-827] (domain or fragment, S. cerevisiae, UniProt P11938 675-827, looked up)
chain: SDFSNEDIYDNIDPDTISFPPKIATTDLFLPLFFHFGSTRQFMDKLHEVISGDYEPSQAEKLVQDLCDETGIRKNFSTSILTCLSGDLMVFPRYFLNMFKDNVNPPPNVPGIWTHDDDESLKSNDQEQIRKLVKKHGTGRMEMRKRFFEKDLL
Question: Does B4 bind (Rif2 full length)?
Answer: Result: binds
